Measured values reported in paper PMC10030117 (eLife, 2023).

Biological target: T1, HKU1 spike (2P-stabilized ectodomain with foldon) (HCoV-HKU1, isolate N5 (as in PDB 5I08), UniProt Q0ZME7, stabilised)
T1 construct: source: ExpiCHO or Freestyle 293F cells, purified
Assay: ELISA
Settings: both partners purified

Binder	binding result
Antibody 3A3, full-length (mouse variable region-human IgG1 constant region chimera) (antibody, V domains shown) VH: QVQLQQSGAELLKPGASVKLSCTASGFNIKDTYIHWLKQRPEQGLEWIGRIGPAIGNTIYAPKFQGKATITTDTSSNTAYLQLSSLTSEDTAVYYCARYYGSSYYYFDYWGQGTTLTVSS VL: DIVMTQSAPSVPVTPGESVSISCRSSKSLLHSNGNTYLYWFLQRPGQSPQLLIYRMSNLASGVPDRFSGSGSGTAFTLRISRVEAEDVGVYYCMQYLEYPLTFGAGTKLELK	binds
Antibody RAY53, full-length human IgG1 (antibody, V domains shown) VH: QVQLVQSGAVVLKPGASVKLSCKASGFNIKNTYIHWLKQAPGQRLEWIGRIGPAIGNTIYAPKFQGKATITTDTSASTAYLELSSLRSEDTAVYYCARYYGSSYYYLDYWGQGTTVTVSS VL: DIVMTQSPLSVPVTPGEPVSISCRSSKSLLHSNGNTYLYWFLQKPGQSPQLLIARMSTLASGVPDRFSGSGSGTAFTLKISRVEAEDVGVYYCMQYLEYPLTFGAGTKLEIK	binds
